Source: PMC6179184, “Interaction of the Warsaw breakage syndrome DNA helicase DDX11 with the replication fork-protection factor Timeless promotes sister chromatid cohesion” (PLoS Genetics, 2018)

B1: DDX11-3xFlag wild type [human] / endogenous Timeless (HEK 293T) [human (endogenous in HEK 293T)] (parent complex)
chain 1: MANETQKVGAIHFPFPFTPYSIQEDFMAELYRVLEAGKIGIFESPTGTGKSLSLICGALSWLRDFEQKKREEEARLLETGTGPLHDEKDESLCLSSSCEGAAGTPRPAGEPAWVTQFVQKKEERDLVDRLKAEQARRKQREERLQQLQHRVQLKYAAKRLRQEEEERENLLRLSREMLETGPEAERLEQLESGEEELVLAEYESDEEKKVASRVDEDEDDLEEEHITKIYYCSRTHSQLAQFVHEVKKSPFGKDVRLVSLGSRQNLCVNEDVKSLGSVQLINDRCVDMQRSRHEKKKGAEEEKPKRRRQEKQAACPFYNHEQMGLLRDEALAEVKDMEQLLALGKEARACPYYGSRLAIPAAQLVVLPYQMLLHAATRQAAGIRLQDQVVIIDEAHNLIDTITGMHSVEVSGSQLCQAHSQLLQYVERYGKRLKAKNLMYLKQILYLLEKFVAVLGGNIKQNPNTQSLSQTGTELKTINDFLFQSQIDNINLFKVQRYCEKSMISRKLFGFTERYGAVFSSREQPKLAGFQQFLQSLQPRTTEALAAPADESQASTLRPASPLMHIQGFLAALTTANQDGRVILSRQGSLSQSTLKFLLLNPAVHFAQVVKECRAVVIAGGTMQPVSDFRQQLLACAGVEAERVVEFSCGHVIPPDNILPLVICSGISNQPLEFTFQKRELPQMMDEVGRILCNLCGVVPGGVVCFFPSYEYLRQVHAHWEKGGLLGRLAARKKIFQEPKSAHQVEQVLLAYSRCIQACGQERGQVTGALLLSVVGGKMSEGINFSDNLGRCVVMVGMPFPNIRSAELQEKMAYLDQTLPRAPGQAPPGKALVENLCMKAVNQSIGRAIRHQKDFASVVLLDQRYARPPVLAKLPAWIRARVEVKATFGPAIAAVQKFHREKSASS
chain 2: MDLHMMNCELLATCSALGYLEGDTYHKEPDCLESVKDLIRYLRHEDETRDVRQQLGAAQILQSDLLPILTQHHQDKPLFDAVIRLMVNLTQPALLCFGNLPKEPSFRHHFLQVLTYLQAYKEAFASEKAFGVLSETLYELLQLGWEERQEEDNLLIERILLLVRNILHVPADLDQEKKIDDDASAHDQLLWAIHLSGLDDLLLFLASSSAEEQWSLHVLEIVSLMFRDQNPEQLAGVGQGRLAQERSADFAELEVLRQREMAEKKTRALQRGNRHSRFGGSYIVQGLKSIGERDLIFHKGLHNLRNYSSDLGKQPKKVPKRRQAARELSIQRRSALNVRLFLRDFCSEFLENCYNRLMGSVKDHLLREKAQQHDETYYMWALAFFMAFNRAASFRPGLVSETLSVRTFHFIEQNLTNYYEMMLTDRKEAASWARRMHLALKAYQELLATVNEMDISPDEAVRESSRIIKNNIFYVMEYRELFLALFRKFDERCQPRSFLRDLVETTHLFLKMLERFCRSRGNLVVQNKQKKRRKKKKKVLDQAIVSGNVPSSPEEVEAVWPALAEQLQCCAQNSELSMDSVVPFDAASEVPVEEQRAEAMVRIQDCLLAGQAPQALTLLRSAREVWPEGDVFGSQDISPEEEIQLLKQILSAPLPRQQGPEERGAEEEEEEEEEEEEELQVVQVSEKEFNFLDYLKRFACSTVVRAYVLLLRSYQQNSAHTNHCIVKMLHRLAHDLKMEALLFQLSVFCLFNRLLSDPAAGAYKELVTFAKYILGKFFALAAVNQKAFVELLFWKNTAVVREMTEGYGSLDDRSSSRRAPTWSPEEEAHLRELYLANKDVEGQDVVEAILAHLNTVPRTRKQIIHHLVQMGLADSVKDFQRKGTHIVLWTGDQELELQRLFEEFRDSDDVLGHIMKNITAKRSRARIVDKLLALGLVAERRELYKKRQKKLASSILPNGAESLKDFCQEDLEEEENLPEEDSEEEEEGGSEAEQVQGSLVLSNENLGQSLHQEGFSIPLLWLQNCLIRAADDREEDGCSQAVPLVPLTEENEEAMENEQFQQLLRKLGVRPPASGQETFWRIPAKLSPTQLRRAAASLSQPEEEQKLQPELQPKVPGEQGSDEEHCKEHRAQALRALLLAHKKKAGLASPEEEDAVGKEPLKAAPKKRQLLDSDEEQEEDEGRNRAPELGAPGIQKKKRYQIEDDEDD

Variants of: B1
Experiment: co-immuno-precipitation (anti-Flag M2 agarose beads) with quantified Western blot; HEK 293T whole cell extracts, 48 hr post-transfection; three independent experiments; parent: 1; read off a plot

| Variant | ratio to parent |
| --- | --- |
| chain 1 E201K, chain 1 Y202A, chain 1 E203K | ~0.56 |
| chain 1 E201K, chain 1 Y202A | ~0.48 |
